The text below walks through data of patent publication EP4793288A1 (Imbiologics Corp., dated 2025).

A value given as a limit tells only on which side of the number the result lay.

The target in experiment [1] is T1, HLA-G expressed on the cell surface (human, UniProt P17693 25-338). Briefly: cell-based or functional assay.
The next experiment deals with B2M (UniProt P61769 21-119). As to the kind of experiment: ELISA.
For experiment [2], the target named is T1, HLA-G expressed on the cell surface. As to the kind of experiment: flow cytometry on JEG-3 and SCH cells naturally expressing HLA-G, anti-human IgG PE.
Experiment [3] deals with T2, Recombinant HLA-G antigen (human, UniProt P17693 25-308, limits assumed).
T2 construct: also called recombinant HLA-G protein
Briefly: BLI (Octet), antibody on anti-human IgG Fc capture biosensor, HLA-G antigen 100 to 1.56 nM.

Sequence of B2M (P61769 21-119 limits assumed): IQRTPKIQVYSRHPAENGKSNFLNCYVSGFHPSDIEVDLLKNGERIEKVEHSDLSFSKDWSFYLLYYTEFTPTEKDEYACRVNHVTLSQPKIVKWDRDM

B1: 2F1CDRH3#10 (antibody, human IgG1, kappa, V domains shown)
VH: EVQLVESGGGLVQPGGSLRLSCAASGFTFSSYAMSWVRQAPGKGLEWVSRISGSGGYKYYADSVKGRFTISRDNSKNTLYLQMNSLRAEDTAVYYCAKEGTSSYRGWMDVWGQGTLVTVSS
VL: IQMTQSPSSLSASVGDRVTITCRASQSISNYLNWYQQKPGKAPKLLIYATSTLQSGVPSRFSGSGSGTDFTLTISSLQPEDFATYYCQQSYTTPWTFGQGTKVEIKR
With B1, in experiment [1], the “EC50 (nM), ADCC reporter assay on SKOV-3/HLA-G cells” value turned out to be 0.08 nM. Besides, in the experiment with B2M, the binding result is on record as “no binding”. Further, in experiment [2], the “fold HLA-G binding activity against the positive control antibody” value (shortened to “fold HLA-G binding activity”) is at least 3 fold.

B2: Afucosylated 2F1CDRH3#16 (antibody, human IgG1, kappa, V domains shown)
VH: EVQLVESGGGLVQPGGSLRLSCAASGFTFSDYAMSWVRQAPGKGLEWVSRISSSGSYTYYADSVKGRFTISRDNSKNTLYLQMNSLRAEDTAVYYCAKEGTSKYRGWMDVWGQGTLVTVSS
VL: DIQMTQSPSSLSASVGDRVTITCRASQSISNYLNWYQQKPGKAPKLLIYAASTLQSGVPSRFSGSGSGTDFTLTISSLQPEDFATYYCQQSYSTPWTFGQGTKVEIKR
modifications: afucosylated glycan (antibody produced with 400 µM 2-deoxy-2-fluoro-L-fucose in the medium)
On to B2, for which the “EC50 (nM), ADCC reporter assay on SKOV-3/HLA-G cells, afucosylated antibody” value (from here on “EC50 (nM) … afucosylated antibody”) in experiment [1] is 0.02 nM.

B3: 2F1_LS#26 (antibody, human IgG1, kappa, V domains shown)
VH: EVQLVESGGGLVQPGGSLRLSCAASGFTFSSYAMSWVRQAPGKGLEWVSRISGSGGYIYYADSVKGRFTISRDNSKNTLYLQMNSLRAEDTAVYYCAKEGTSSYRGWMDVWGQGTLVTVSS
VL: DIQMTQSPSSLSASVGDRVTITCRASQSISNYLNWYQQKPGKAPKLLIYATSRLQSGVPSRFSGSGSGTDFTLTISSLQPEDFATYYCQQSYSFPWTFGQGTKVEIKR
As to B3, in experiment [3], the Kd came out at 0.698 nM and the koff was determined as 2.82e-05 s⁻¹. Further, in the experiment with B2M, the binding result is listed as “no binding”.

B4: Afucosylated 2F1HS6LS#38 (antibody, V domains shown)
VH: EVQLVESGGGLVQPGGSLRLSCAASGFTFSDYAMSWVRQAPGKGLEWVSRISQSGSYTYYADSVKGRFTISRDNSKNTLYLQMNSLRAEDTAVYYCAKEGTSSYRGWMDVWGQGTLVTVSS
VL: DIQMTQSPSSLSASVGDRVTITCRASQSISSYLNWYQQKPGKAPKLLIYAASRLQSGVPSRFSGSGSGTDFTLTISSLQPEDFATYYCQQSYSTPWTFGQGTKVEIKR
modifications: afucosylated glycan (antibody produced with 400 µM 2-deoxy-2-fluoro-L-fucose in the medium)
Take B4: in experiment [1], the “EC50 (nM) … afucosylated antibody” value is 0.07 nM.

B5: Afucosylated 2F1CDRH3#26 (antibody, human IgG1, kappa, V domains shown)
VH: EVQLVESGGGLVQPGGSLRLSCAASGFTFSSYAMSWVRQAPGKGLEWVSRISGSGSYTYYADSVKGRFTISRDNSKNTLYLQMNSLRAEDTAVYYCAKEGASSYRGWMDVWGQGTLVTVSS
VL: DIQMTQSPSSLSASVGDRVTITCRASQSISNYLNWYQQKPGKAPKLLIYATSRLQSGVPSRFSGSGSGTDFTLTISSLQPEDFATYYCQQSHSTPWTFGQGTKVEIKR
modifications: afucosylated glycan (antibody produced with 400 µM 2-deoxy-2-fluoro-L-fucose in the medium)
Consider B5, for which, in experiment [1], the “EC50 (nM) … afucosylated antibody” value was determined as 0.02 nM.

B6: Afucosylated 2F1CDRH3#17 (antibody, human IgG1, kappa, V domains shown)
VH: EVQLVESGGGLVQPGGSLRLSCAASGFTFSDYAMSWVRQAPGKGLEWVSRISGTGSYKYYADSVKGRFTISRDNSKNTLYLQMNSLRAEDTAVYYCAKEGTSTYRGWMDVWGQGTLVTVSS
VL: DIQMTQSPSSLSASVGDRVTITCRASQSISNYLNWYQQKPGKAPKLLIYATSRLQSGVPSRFSGSGSGTDFTLTISSLQPEDFATYYCQQSYTTPWTFGQGTKVEIKR
modifications: afucosylated glycan (antibody produced with 400 µM 2-deoxy-2-fluoro-L-fucose in the medium)
With B6, in experiment [1], the “EC50 (nM) … afucosylated antibody” value came to 0.01 nM.

B7: Afucosylated 2F1HS6LS#46 (antibody, human IgG1, kappa, V domains shown)
VH: EVQLVESGGGLVQPGGSLRLSCAASGFTFSDYAMSWVRQAPGKGLEWVSRISQSGSYTYYADSVKGRFTISRDNSKNTLYLQMNSLRAEDTAVYYCAKEGTSSYRGWMDVWGQGTLVTVSS
VL: DIQMTQSPSSLSASVGDRVTITCRASQSISNWLNWYQQKPGKAPKLLIYATSRLQSGVPSRFSGSGSGTDFTLTISSLQPEDFATYYCQQSYSTPWTFGQGTKVEIKR
modifications: afucosylated glycan (antibody produced with 400 µM 2-deoxy-2-fluoro-L-fucose in the medium)
B7: in experiment [1], the “EC50 (nM) … afucosylated antibody” value was 0.02 nM.

B8: Afucosylated 2F1CDRH3#10 (antibody, human IgG1, kappa, V domains shown)
VH: EVQLVESGGGLVQPGGSLRLSCAASGFTFSSYAMSWVRQAPGKGLEWVSRISGSGGYKYYADSVKGRFTISRDNSKNTLYLQMNSLRAEDTAVYYCAKEGTSSYRGWMDVWGQGTLVTVSS
VL: IQMTQSPSSLSASVGDRVTITCRASQSISNYLNWYQQKPGKAPKLLIYATSTLQSGVPSRFSGSGSGTDFTLTISSLQPEDFATYYCQQSYTTPWTFGQGTKVEIKR
modifications: afucosylated glycan (antibody produced with 400 µM 2-deoxy-2-fluoro-L-fucose in the medium)
Regarding B8, the “EC50 (nM) … afucosylated antibody” value in experiment [1] worked out at 0.01 nM.

B9: 2F1CDRH3#17 (antibody, human IgG1, kappa, V domains shown)
VH: EVQLVESGGGLVQPGGSLRLSCAASGFTFSDYAMSWVRQAPGKGLEWVSRISGTGSYKYYADSVKGRFTISRDNSKNTLYLQMNSLRAEDTAVYYCAKEGTSTYRGWMDVWGQGTLVTVSS
VL: DIQMTQSPSSLSASVGDRVTITCRASQSISNYLNWYQQKPGKAPKLLIYATSRLQSGVPSRFSGSGSGTDFTLTISSLQPEDFATYYCQQSYTTPWTFGQGTKVEIKR
Regarding B9, the “EC50 (nM), ADCC reporter assay on SKOV-3/HLA-G cells” value in experiment [1] was 0.07 nM. Besides, the binding result with B2M is “no binding”. For the same molecule, the “fold HLA-G binding activity” value in experiment [2] was at least 3 fold.

B10: 2F1CDRH3#26 (antibody, human IgG1, kappa, V domains shown)
VH: EVQLVESGGGLVQPGGSLRLSCAASGFTFSSYAMSWVRQAPGKGLEWVSRISGSGSYTYYADSVKGRFTISRDNSKNTLYLQMNSLRAEDTAVYYCAKEGASSYRGWMDVWGQGTLVTVSS
VL: DIQMTQSPSSLSASVGDRVTITCRASQSISNYLNWYQQKPGKAPKLLIYATSRLQSGVPSRFSGSGSGTDFTLTISSLQPEDFATYYCQQSHSTPWTFGQGTKVEIKR
With B10, the “EC50 (nM), ADCC reporter assay on SKOV-3/HLA-G cells” value in experiment [1] worked out at 0.1 nM. Moreover, the binding result with B2M is “no binding”. Besides, the “fold HLA-G binding activity” value in experiment [2] is at least 3 fold.

B11: 2F1CDRH3#16 (antibody, human IgG1, kappa, V domains shown)
VH: EVQLVESGGGLVQPGGSLRLSCAASGFTFSDYAMSWVRQAPGKGLEWVSRISSSGSYTYYADSVKGRFTISRDNSKNTLYLQMNSLRAEDTAVYYCAKEGTSKYRGWMDVWGQGTLVTVSS
VL: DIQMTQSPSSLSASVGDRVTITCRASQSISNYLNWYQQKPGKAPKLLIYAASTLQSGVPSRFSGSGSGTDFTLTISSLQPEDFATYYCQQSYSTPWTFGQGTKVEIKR
As for B11, the “EC50 (nM), ADCC reporter assay on SKOV-3/HLA-G cells” value in experiment [1] is 0.17 nM. Further, in the experiment with B2M, the binding result was “no binding”. Besides, the “fold HLA-G binding activity” value in experiment [2] was at least 3 fold.

B12: 2F1_LS#17 (antibody, human IgG1, kappa, V domains shown)
VH: EVQLVESGGGLVQPGGSLRLSCAASGFTFSSYAMSWVRQAPGKGLEWVSRISGSGGYIYYADSVKGRFTISRDNSKNTLYLQMNSLRAEDTAVYYCAKEGTSSYRGWMDVWGQGTLVTVSS
VL: DIQMTQSPSSLSASVGDRVTITCRASQSISNYLNWYQQKPGKAPKLLIYAASRLQSDVPSRFSGSGSGTDFTLTISSLQPEDFATYYCQQSYSTPWTFGQGTKVEIKR
For the molecule B12, in experiment [3], the Kd is 0.689 nM and the koff was 0.000138 s⁻¹. Moreover, in the experiment with B2M, the binding result was “no binding”.

B13: 2F1 (antibody, human IgG1, kappa, V domains shown)
VH: EVQLVESGGGLVQPGGSLRLSCAASGFTFSSYAMSWVRQAPGKGLEWVSRISGSGGYIYYADSVKGRFTISRDNSKNTLYLQMNSLRAEDTAVYYCAKEGTSSYRGWMDVWGQGTLVTVSS
VL: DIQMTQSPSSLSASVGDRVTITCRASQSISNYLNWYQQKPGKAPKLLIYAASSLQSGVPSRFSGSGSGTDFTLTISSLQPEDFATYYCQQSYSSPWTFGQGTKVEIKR
notes: produced in Expi293F cells
Consider B13, for which, in experiment [3], the Kd came out at 0.523 nM and the koff is 0.00013 s⁻¹. Also, the binding result in the experiment with B2M is “no binding”.

B14: 2F1_LS#24 (antibody, human IgG1, kappa, V domains shown)
VH: EVQLVESGGGLVQPGGSLRLSCAASGFTFSSYAMSWVRQAPGKGLEWVSRISGSGGYIYYADSVKGRFTISRDNSKNTLYLQMNSLRAEDTAVYYCAKEGTSSYRGWMDVWGQGTLVTVSS
VL: DIQMTQSPSSLSASVGDRVTITCRASQSISNWLNWYQQKPGKAPKLLIYAASRLQSGVPSRFSGSGSGTDFTLTISSLQPEDFATYYCQQSYTSPWTFGQGTKVEIKR
Take B14: in experiment [3], the Kd came out at 0.553 nM and the off-rate (koff) amounted to 0.00012 s⁻¹. In addition, the binding result with B2M is given as “no binding”.

B15: 2F1_LS#39 (antibody, human IgG1, kappa, V domains shown)
VH: EVQLVESGGGLVQPGGSLRLSCAASGFTFSSYAMSWVRQAPGKGLEWVSRISGSGGYIYYADSVKGRFTISRDNSKNTLYLQMNSLRAEDTAVYYCAKEGTSSYRGWMDVWGQGTLVTVSS
VL: DIQMTQSPSSLSASVGDRVTITCRASQSISRYLNWYQQKPGKAPKLLIYATSNLHSGVPSRFSGSGSGTDFTLTISSLQPEDFATYYCQQSYTSPWTFGQGTKVEIKR
Take B15: in experiment [3], the Kd was 0.567 nM and the koff came to 0.000106 s⁻¹. For the same molecule, in the experiment with B2M, the binding result is “no binding”.

B16: Afucosylated positive control antibody (antibody, human IgG1, kappa, V domains shown)
VH: QLQLQESGPGLVKPSETLSLTCTVSGGSISSSSTYWSWIRQPPGKGLEWIGGIAYSGSTYYNPSLKSRVTISVDTSKNQFSLKLSSVTAADTAVYYCARGVRRAVPEDYWGQGTLVTVSS
VL: EIVLTQSPGTLSLSPGERATLSCQASQAVSSNYLAWYQQKPGQAPRLLIYGASSRATGIPDRFSGSGSGTDFTLTISRLEPEDFAVYYCQQVVHSPYTFGGGTKVEIKR
modifications: afucosylated glycan
As for B16, the “EC50 (nM) … afucosylated antibody” value in experiment [1] was found to be 0.13 nM.

B17: Positive control antibody (antibody, human IgG1, kappa, V domains shown)
VH: QLQLQESGPGLVKPSETLSLTCTVSGGSISSSSTYWSWIRQPPGKGLEWIGGIAYSGSTYYNPSLKSRVTISVDTSKNQFSLKLSSVTAADTAVYYCARGVRRAVPEDYWGQGTLVTVSS
VL: EIVLTQSPGTLSLSPGERATLSCQASQAVSSNYLAWYQQKPGQAPRLLIYGASSRATGIPDRFSGSGSGTDFTLTISRLEPEDFAVYYCQQVVHSPYTFGGGTKVEIKR
Consider B17, for which, in experiment [3], the Kd is 1.36 nM and the koff amounted to 0.000157 s⁻¹. Besides, the “EC50 (nM), ADCC reporter assay on SKOV-3/HLA-G cells” value in experiment [1] was 1.59 nM.

B18: T22A4 (antibody, human IgG1, kappa, V domains shown)
VH: EVQLVESGGNWVQPGGSLRLSCAASGFSFRSYAMSWVRQAPGKGLEWVSSISGSGNSELYAGSVKGRFTISRDNSKNTLSLQLHSLRAEDTAMYYCAKFSAAVGFLPDYFDSWGQGTLVTVSS
VL: ELTLTQSPSSLSASVGDRVTITCQASHDISKYLNWYQQKSGKAPKLLIYDASNLETGVPSRFSGSGSGTDFTLTISSLQPEDFATYYCQQSYRTPLTFGGGTKLEIKR
Regarding B18, the binding result with B2M is recorded as “no binding”.

B19: T23D5 (antibody, human IgG1, kappa, V domains shown)
VH: QVQLQESGPGLVKPSETLSLTCTVSGGSIDRSSHYWGWIRQPPGKGLEWLGSIYYSGITYYNPSLKSRVTISVDTSRNQFSLTLSSVTAADTAVYYCARHGSYDSWAGRYKWDRFDPWGQGTPVTVSS
VL: ELQMTQSPSSLSASVGDRVTITCQASHDISKYLNWYQQKSGKAPKLLIYDASNLETGVPSRFSGSGSGTDFTLTISSLQPEDFATYYCQQSYSTPLTFGGGTKVEIKR
For the molecule B19, in the experiment with B2M, the binding result was “no binding”.
